Key:
[1] = molecular target: secretory immunoglobulin A1 (sIgA1) from human colostrum (human (endogenous in colostrum)) (UniProt P01591); test: dynamic light scattering; sIgA1 titrated with FTL (0.06–1.94 mg/mL); Z-average diameter against FTL:sIgA1 molar ratio; Hill fit; apparent KD
[2] = molecular target: frutalin (FTL), galactose-specific jacalin-related lectin from Artocarpus altilis (syn. Artocarpus incisa) seeds (Artocarpus altilis (syn. Artocarpus incisa)); test: SEC; FTL alone on a Superdex column equilibrated in PBS + 50 mM D-galactose; single peak at Ve = 15.57 mL; apparent mass from calibration; oligomer of alpha-beta protomers
[3] = molecular target: secretory immunoglobulin A1 (sIgA1) from human colostrum (human (endogenous in colostrum)) (UniProt P01591); test: BLI; Octet RED96; sIgA1 immobilised on AR2G biosensors via amine coupling, FTL as analyte; 25 °C; PBS with 0.02% Tween-20; global fit, 1:2 bivalent analyte model
[4] = molecular target: secretory immunoglobulin A1 (sIgA1) from human colostrum (human (endogenous in colostrum)) (UniProt P01591)

stoichiometry N [1]: 1 to 1.5 FTL:sIgA1
stoichiometry N [2]: 2
koff [3]: 0.00214 s⁻¹
kon [3]: 596000 M⁻¹ s⁻¹
hemagglutination titer (rabbit erythrocytes) of the preformed FTL–sIgA1 complex at 1 mg/mL, with 0 to 200 mM D-galactose (∼2^8 at 200 mM); free FTL ∼2^17 (∼2^9 at 200 mM galactose); sIgA1 alone ∼2^4 [4]: 65500 HU
Substance: frutalin (FTL), galactose-specific jacalin-related lectin from Artocarpus altilis (syn. Artocarpus incisa) seeds (natural protein)
